Results as given in PMC3206593 (Bioorganic & medicinal chemistry, 2011).
Positions of bridges follow the written chain, without caps; N, C: chain ends. No end group written: not given here.

T1: Aurora A (Homo sapiens, UniProt O14965)
T1 sequence (O14965 1-403): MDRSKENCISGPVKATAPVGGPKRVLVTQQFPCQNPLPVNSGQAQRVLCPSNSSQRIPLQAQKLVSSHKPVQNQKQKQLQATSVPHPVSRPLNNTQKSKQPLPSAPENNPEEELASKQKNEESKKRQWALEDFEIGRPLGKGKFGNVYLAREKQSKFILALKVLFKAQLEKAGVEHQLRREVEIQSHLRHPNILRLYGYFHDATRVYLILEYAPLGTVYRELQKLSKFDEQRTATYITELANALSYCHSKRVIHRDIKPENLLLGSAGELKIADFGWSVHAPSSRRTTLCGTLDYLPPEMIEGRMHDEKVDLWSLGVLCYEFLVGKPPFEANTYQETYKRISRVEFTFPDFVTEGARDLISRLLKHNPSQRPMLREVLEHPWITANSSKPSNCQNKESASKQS

T2: (CTRPWWLC)G cyclic peptide (disulfide 1-8 (inferred))
T2 chain: CTRPWWLCG-NH2


What was measured:
Aurora A = target: T1, Aurora A; conditions: at a concentration of 100 μM; peptide appended to the helices; cited from earlier work
[1] = target: T2, (CTRPWWLC)G cyclic peptide; assay: radiometric kinase kinetic assay

Row | Ki [1] [µM] | Molecule | inhibition of Aurora A (Aurora A) [%]
1 |  | GRRVVVSFAWD | 35
2 | 31 | Aurora kinase A (protein) MDRSKENCISGPVKATAPVGGPKRVLVTQQFPCQNPLPVNSGQAQRVLCPSNSSQRIPLQAQKLVSSHKPVQNQKQKQLQATSVPHPVSRPLNNTQKSKQPLPSAPENNPEEELASKQKNEESKKRQWALEDFEIGRPLGKGKFGNVYLAREKQSKFILALKVLFKAQLEKAGVEHQLRREVEIQSHLRHPNILRLYGYFHDATRVYLILEYAPLGTVYRELQKLSKFDEQRTATYITELANALSYCHSKRVIHRDIKPENLLLGSAGELKIADFGWSVHAPSSRRTTLCGTLDYLPPEMIEGRMHDEKVDLWSLGVLCYEFLVGKPPFEANTYQETYKRISRVEFTFPDFVTEGARDLISRLLKHNPSQRPMLREVLEHPWITANSSKPSNCQNKESASKQS | 
